The record followed here is article PMC3677924, “Biochemical and Functional Analysis of Drosophila-Sciara Chimeric Sex-Lethal Proteins”.

What all share (conditions): protein: recombinant; tags: GST; label: fluorescein (RNA labelling mix)
Series [1] has as its target T1, SX35 chimera (Drosophila melanogaster / Sciara …, UniProt P19339 1-123+=R+Q86QM9:73-287, internal_change).
T1 sequence: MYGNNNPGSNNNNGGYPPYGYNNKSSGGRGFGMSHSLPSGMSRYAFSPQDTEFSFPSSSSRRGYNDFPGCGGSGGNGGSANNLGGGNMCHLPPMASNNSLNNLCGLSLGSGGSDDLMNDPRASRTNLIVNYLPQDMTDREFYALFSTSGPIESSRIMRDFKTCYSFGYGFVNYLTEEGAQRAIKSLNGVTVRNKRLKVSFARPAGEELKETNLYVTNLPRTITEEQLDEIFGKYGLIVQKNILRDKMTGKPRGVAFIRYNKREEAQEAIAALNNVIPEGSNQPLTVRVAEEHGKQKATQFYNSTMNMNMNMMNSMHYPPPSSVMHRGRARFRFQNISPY
Description: EMSA; Hill n=1; error 95% CI; 20 mM Hepes pH 8.0, 0.1 M KCl, 0.5 mM EDTA, 1 mM DTT, 0.05% NP40, 20% glycerol, 3 µg yeast tRNA; 5 min on ice, then 10 min at room temperature with RNA; 5% native PAGE, 0.25x TBE. A general note: In EMSA bound probe runs differently from free probe, usually more slowly.

The target in series [2] is T2, SX28 chimera (Drosophila melanogaster / Sciara …, UniProt Q86QM9 1-240+=LE+P19339:293-354, internal_change).
T2 sequence: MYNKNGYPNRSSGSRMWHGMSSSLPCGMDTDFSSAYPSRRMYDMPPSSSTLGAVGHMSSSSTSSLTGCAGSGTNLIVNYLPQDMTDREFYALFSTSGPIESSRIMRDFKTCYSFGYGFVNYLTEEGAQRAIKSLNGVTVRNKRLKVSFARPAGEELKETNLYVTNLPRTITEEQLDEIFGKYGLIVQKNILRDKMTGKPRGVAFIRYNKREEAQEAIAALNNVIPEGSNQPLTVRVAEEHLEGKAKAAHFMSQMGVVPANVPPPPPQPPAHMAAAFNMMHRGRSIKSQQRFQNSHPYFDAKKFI
The series is described as above.

Series [3] deals with T3, SX17 chimera (Drosophila melanogaster / Sciara …, UniProt Q86QM9 1-71+=R+P19339:125-354, internal_change).
T3 sequence: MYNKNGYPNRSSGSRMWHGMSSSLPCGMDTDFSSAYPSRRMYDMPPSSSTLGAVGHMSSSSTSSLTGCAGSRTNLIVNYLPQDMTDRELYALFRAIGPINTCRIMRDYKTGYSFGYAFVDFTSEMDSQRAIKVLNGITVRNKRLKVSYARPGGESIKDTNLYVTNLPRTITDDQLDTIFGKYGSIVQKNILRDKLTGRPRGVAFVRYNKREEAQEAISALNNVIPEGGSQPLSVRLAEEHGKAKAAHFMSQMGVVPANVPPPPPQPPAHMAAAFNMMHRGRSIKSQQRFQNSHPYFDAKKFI
The series is described as above.

Series [4] has as its target T4, SX64 chimera (Drosophila melanogaster / Sciara …, UniProt P19339 1-292+=LE+Q86QM9:241-287, internal_change).
T4 sequence: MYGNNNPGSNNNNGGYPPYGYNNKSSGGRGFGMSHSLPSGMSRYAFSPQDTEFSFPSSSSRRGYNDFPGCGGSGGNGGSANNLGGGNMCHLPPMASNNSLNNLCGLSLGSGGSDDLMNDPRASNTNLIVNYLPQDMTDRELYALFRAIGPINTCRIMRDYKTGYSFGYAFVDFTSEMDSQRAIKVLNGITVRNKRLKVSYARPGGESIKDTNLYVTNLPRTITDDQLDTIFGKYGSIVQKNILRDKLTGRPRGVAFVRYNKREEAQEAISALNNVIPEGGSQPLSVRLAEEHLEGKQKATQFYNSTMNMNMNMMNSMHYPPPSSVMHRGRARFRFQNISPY
Described as above.

Series [5] concerns the target T1, SX35 chimera. Description: EMSA; apparent Kd, Hill fit; error 95% CI; 20 mM Hepes pH 8.0, 0.1 M KCl, 0.5 mM EDTA, 1 mM DTT, 0.05% NP40, 20% glycerol, 3 µg yeast tRNA; 5 min on ice, then 10 min at room temperature with RNA; 5% native PAGE, 0.25x TBE.
The target of series [6] is T2, SX28 chimera. The series is described as above.
Series [7] has as its target T3, SX17 chimera. The description is as above.
The target in series [8] is T4, SX64 chimera. The description is as above.

On to CAUGAUUAUUUUUUUUUAUUUUUUUUCGGUGA (ssRNA) [double poly(U) SXL site], for which the Kd stood at 0.9 ± 0.4 µM with SX35 chimera [1], 3.8 ± 0.5 µM with SX28 chimera [2], 2.4 ± 0.5 µM with SX17 chimera [3] and 2.3 ± 0.4 µM with SX64 chimera [4].

ACAUAUUUUUUUUCACAGC (ssRNA) [single poly(U) SXL site]: the Kd in the series with SX35 chimera [5] was 230 ± 40 µM; with SX28 chimera [6], 230 ± 50 µM; with SX17 chimera [7] it was 350 ± 50 µM; with SX64 chimera [8], 180 ± 20 µM.
